Target: Fhb7
Assay: crystal structure

For Fhb7 (enzyme), the stoichiometry N was 2.

— PMC10900206
